This experiment concerns the target T1, Cdc24-6xHis (full-length, wild type) (S. cerevisiae (budding yeast), UniProt P11433 1-854).
T1 sequence: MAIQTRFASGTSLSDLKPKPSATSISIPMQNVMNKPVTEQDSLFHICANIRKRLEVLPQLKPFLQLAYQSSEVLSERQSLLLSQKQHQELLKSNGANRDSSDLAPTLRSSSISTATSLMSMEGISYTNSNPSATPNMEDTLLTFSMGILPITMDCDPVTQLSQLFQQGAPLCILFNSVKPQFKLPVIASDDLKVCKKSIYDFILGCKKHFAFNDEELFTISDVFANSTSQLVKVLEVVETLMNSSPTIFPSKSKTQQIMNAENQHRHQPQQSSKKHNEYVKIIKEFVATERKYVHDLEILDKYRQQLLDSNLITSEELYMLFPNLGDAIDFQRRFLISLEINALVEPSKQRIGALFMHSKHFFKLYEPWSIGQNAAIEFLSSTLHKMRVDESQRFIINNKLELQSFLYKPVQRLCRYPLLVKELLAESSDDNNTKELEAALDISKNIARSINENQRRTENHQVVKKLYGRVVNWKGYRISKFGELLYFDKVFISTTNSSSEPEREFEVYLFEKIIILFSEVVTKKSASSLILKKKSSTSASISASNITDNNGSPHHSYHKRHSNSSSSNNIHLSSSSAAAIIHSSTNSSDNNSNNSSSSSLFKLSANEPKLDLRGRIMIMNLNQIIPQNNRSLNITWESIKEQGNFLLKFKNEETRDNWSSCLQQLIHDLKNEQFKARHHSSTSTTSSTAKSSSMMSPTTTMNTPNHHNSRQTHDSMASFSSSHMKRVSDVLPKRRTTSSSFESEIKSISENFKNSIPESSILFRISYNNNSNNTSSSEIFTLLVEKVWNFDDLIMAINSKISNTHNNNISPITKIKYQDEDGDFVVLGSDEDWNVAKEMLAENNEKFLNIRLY
The experiment in a line: liposome floatation.

B1: Bem1 (full-length, wild type) (natural protein)
chain: MLKNFKLSKRDSNGSKGRITSADISTPSHDNGSVIKHIKTVPVRYLSSSSTPVKSQRDSSPKNRHNSKDITSPEKVIKAKYSYQAQTSKELSFMEGEFFYVSGDEKDWYKASNPSTGKEGVVPKTYFEVFDRTKPSSVNGSNSSSRKVTNDSLNMGSLYAIVLYDFKAEKADELTTYVGENLFICAHHNCEWFIAKPIGRLGGPGLVPVGFVSIIDIATGYATGNDVIEDIKSVNLPTVQEWKSNIARYKASNISLGSVEQQQQQSITKPQNKSAKLVDGELLVKASVESFGLEDEKYWFLVCCELSNGKTRQLKRYYQDFYDLQVQLLDAFPAEAGKLRDAGGQWSKRIMPYIPGPVPYVTNSITKKRKEDLNIYVADLVNLPDYISRSEMVHSLFVVLNNGFDREFERDENQNNIKTLQENDTATFATASQTSNFASTNQDNTLTGEDLKLNKKLSDLSLSGSKQAPAQSTSGLKTTKIKFYYKDDIFALMLKGDTTYKELRSKIAPRIDTDNFKLQTKLFDGSGEEIKTDSQVSNIIQAKLKISVHDI
Regarding B1, the binding result was “binds”.

(Values after paper doi:10.1101/303024 (bioRxiv, 2018).)
